Assay results reported in article PMC7474679 (Proceedings of the National Academy of Sciences of the …, 2020).
No end group written: not given here. *: point of attachment. FITC = O=C1OC2(c3ccc(O)cc3Oc3cc(O)ccc32)c2ccc(NC(=S)*)cc21

Biological target: T1, Full-length S. cerevisiae Pex5 (S. cerevisiae, UniProt P35056 1-612)
T1 sequence: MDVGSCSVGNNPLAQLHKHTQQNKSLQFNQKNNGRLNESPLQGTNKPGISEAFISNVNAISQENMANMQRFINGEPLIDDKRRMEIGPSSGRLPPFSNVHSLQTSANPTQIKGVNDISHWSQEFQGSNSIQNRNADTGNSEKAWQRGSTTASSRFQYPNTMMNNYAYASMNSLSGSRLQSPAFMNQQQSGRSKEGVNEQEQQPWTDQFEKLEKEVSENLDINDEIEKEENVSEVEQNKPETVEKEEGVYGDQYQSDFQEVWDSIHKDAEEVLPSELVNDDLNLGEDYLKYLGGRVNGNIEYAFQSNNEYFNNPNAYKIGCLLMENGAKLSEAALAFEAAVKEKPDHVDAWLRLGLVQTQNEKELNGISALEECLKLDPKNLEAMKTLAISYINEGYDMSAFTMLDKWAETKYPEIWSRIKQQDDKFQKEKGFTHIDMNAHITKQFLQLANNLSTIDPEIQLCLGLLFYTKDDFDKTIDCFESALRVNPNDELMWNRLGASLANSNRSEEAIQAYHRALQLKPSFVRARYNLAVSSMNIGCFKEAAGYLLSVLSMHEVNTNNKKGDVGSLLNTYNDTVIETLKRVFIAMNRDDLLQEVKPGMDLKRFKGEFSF
Experiment: fluorescence polarisation

{FITC}-YNENKRKAKL [Cat2 peptide (FITC-YNENKRKAKL)] was tested. Which Kd did it give?
Its Kd is 49.9 ± 4.1 nM.

With {FITC}-GMDELYKSKL [mCherry-SKL peptide (FITC-GMDELYKSKL)] as the binder, how does the Kd read?
The Kd was 9840 nM.

{FITC}-YKSSRNKSKL [Pcs60 peptide (FITC-YKSSRNKSKL)] was tested. Which Kd did it give?
The Kd was 455 ± 43.8 nM.

How did the Kd turn out when {FITC}-YARVKRSSRL [Lys1 peptide (FITC-YARVKRSSRL)] was run?
Its Kd is 29.3 ± 3.65 nM.
